The record followed here is patent US20220016245A1, “CONJUGATE OF BIOTIN-MODIFIED DIMER AND PHTHALOCYANINE DYE” (The University of Tokyo, priority 2018, published 2022).

The target in test [1] is T1, Recombinant Human CEACAM-5/CD66e Protein, CF (R & D SYSTEMS) (human, UniProt P06731 35-685).
T1 construct: Bought protein, immobilized on the sensor chip by amine coupling
T1 sequence (looked up): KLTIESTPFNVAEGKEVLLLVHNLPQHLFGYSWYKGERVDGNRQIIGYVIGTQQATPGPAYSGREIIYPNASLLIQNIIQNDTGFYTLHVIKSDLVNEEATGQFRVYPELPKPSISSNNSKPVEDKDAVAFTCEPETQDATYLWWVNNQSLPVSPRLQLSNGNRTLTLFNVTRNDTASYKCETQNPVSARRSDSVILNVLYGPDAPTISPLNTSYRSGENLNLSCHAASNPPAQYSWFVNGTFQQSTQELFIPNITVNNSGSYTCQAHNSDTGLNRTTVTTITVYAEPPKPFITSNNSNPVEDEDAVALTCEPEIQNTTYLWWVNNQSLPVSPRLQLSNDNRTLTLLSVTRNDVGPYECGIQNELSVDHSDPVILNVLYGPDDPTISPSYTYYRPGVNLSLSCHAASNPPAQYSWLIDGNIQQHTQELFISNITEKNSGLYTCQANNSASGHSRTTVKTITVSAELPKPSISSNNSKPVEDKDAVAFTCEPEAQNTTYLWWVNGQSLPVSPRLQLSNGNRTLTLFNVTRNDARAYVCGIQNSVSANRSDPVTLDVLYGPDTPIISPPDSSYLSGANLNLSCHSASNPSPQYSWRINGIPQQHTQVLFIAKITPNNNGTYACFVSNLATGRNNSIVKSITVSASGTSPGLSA
The test is described as follows: SPR, Biacore T200; CEACAM5 immobilized by amine coupling (279 RU), CEA-V2122 as analyte, single-cycle kinetics, bivalent analysis fit (KD = kd1/ka1). (In general: SPR reads the build-up and loss of mass on a sensor chip optically.)

Test [2] has as its target T2, CEACAM5 (Homo sapiens, UniProt P06731).
T2 construct: endogenous in cells; host or cells: MKN-45 (CEACAM5-positive); DLD1 (CEACAM5-negative control)
T2 sequence (P06731 35-676): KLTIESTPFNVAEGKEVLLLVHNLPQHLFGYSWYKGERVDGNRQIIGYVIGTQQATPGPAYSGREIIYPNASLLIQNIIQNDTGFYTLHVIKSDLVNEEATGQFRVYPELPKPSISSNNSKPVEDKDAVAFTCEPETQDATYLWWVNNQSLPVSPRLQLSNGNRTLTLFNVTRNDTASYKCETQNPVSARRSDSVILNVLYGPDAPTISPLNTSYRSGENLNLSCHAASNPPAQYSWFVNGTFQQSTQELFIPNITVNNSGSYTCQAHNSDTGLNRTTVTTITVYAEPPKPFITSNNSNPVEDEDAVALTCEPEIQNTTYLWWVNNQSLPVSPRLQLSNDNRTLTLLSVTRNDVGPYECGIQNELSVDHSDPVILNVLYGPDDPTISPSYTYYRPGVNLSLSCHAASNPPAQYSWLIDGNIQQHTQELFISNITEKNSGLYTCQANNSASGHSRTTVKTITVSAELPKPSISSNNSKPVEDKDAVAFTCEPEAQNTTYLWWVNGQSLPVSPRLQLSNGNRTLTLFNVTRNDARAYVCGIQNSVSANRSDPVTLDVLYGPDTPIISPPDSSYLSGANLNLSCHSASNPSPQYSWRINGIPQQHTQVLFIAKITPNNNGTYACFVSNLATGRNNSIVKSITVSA
In words: cell staining of CEACAM5-expressing cell line using FITC-labeled CEA-V2122. The format is cell-based. Here is the method:
In order to stain a CEACAM5 expression-positive cancer cell line, FITC labeling was carried out on the cell line, using 100 μg of a purified CEA-V2122 protein. Specifically, labeling was carried out using Fluorescein Labeling Kit—NH2 (DOJINDO LABORATORIES) in accordance with the protocol and amount described in the operating manual included with the kit, and the obtained product was defined to be CEA-V2122-FITC. Specific staining of the CEACAM5 expression-positive cancer cell line is as follows. That is, CEACAM5-positive human stomach cancer-derived MKN-45 cells and CEACAM5-negative human colon cancer-derived DLD1 cells were each seeded on a CELLSTAR, μClear, 96-well plate (Greiner) to a cell density of 2.0×10^4 cells/well, and thereafter, the cells were cultured overnight. Subsequently, a culture solution containing 20 nM CEA-V2122-FITC and 1 μM Hoechist was added to the 96-well plate to a concentration of 100 μL/well, and the obtained mixture was then reacted at 4° C. for 30 minutes. Thereafter, each image was taken using In Cell Analyzer 6000 (GE Healthcare Life Sciences).

Test [3] has as its target T3, Recombinant Human CEACAM-5/CD66e Protein (Homo sapiens, UniProt P06731).
T3 construct: purchased R & D SYSTEMS
T3 sequence (P06731 35-676): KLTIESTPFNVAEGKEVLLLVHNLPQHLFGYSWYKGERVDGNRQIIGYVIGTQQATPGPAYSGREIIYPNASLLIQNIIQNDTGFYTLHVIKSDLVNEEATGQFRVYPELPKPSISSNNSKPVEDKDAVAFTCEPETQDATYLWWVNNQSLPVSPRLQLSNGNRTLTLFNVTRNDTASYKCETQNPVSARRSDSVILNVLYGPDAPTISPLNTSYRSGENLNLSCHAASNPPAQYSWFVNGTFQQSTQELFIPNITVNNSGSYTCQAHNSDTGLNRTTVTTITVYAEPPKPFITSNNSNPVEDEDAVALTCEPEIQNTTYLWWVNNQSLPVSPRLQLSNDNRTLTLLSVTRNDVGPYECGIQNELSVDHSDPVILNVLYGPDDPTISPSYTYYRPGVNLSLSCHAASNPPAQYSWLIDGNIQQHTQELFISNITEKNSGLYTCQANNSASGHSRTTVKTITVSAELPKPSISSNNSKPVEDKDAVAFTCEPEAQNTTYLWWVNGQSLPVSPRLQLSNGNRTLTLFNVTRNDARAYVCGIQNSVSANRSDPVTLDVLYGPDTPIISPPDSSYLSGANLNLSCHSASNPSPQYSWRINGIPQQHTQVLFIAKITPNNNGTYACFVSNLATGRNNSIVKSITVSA
The test is described as follows: SPR (Biacore T200) affinity of CEA-V2122 for antigen CEACAM5. It is filed as binding.

Where [4] appears, read: single-cycle kinetics, bivalent analysis mode.

B1: CEA-V2122 (scFv)
chain: QVKLEQSGAEVVKPGASVKLSCKASGFNIKDSYMHWLRQGPGQRLEWIGWIDPENGDTEYAPKFQGKATFTTDTSANTAYLGLSSLRPEDTAVYYCNEGTPTGPYYFDYWGQGTLVTVSSGGGGSGGGGSGGGGSENVLTQSPSSMSVSVGDRVNIACSASSSVPYMHWLQQKPGKSPKLLIYLTSNLASGVPSRFSGSGSGTDYSLTISSVQPEDAATYYCQQRSSYPLTFGGGTKLEIKGGGGSGGGGAEAGITGTWSDQLGDTFIVTAGADGALTGTYENAVGGAESRYVLTGRYDSAPATDGSGTALGWTVAWKNNSKNAHSATTWSGQYVGGADAKINTQWLLTSGTTNANAWKSTLVGHDTFTKVKPSAASHHHHHH
notes: Fusion of an anti-CEACAM5 scFv and mutant streptavidin V2122; also called CEA-Cupid; scFv-V2122
As for B1, the Kd in test [1] is 1.08 pM.

B2: CEA-V2122-FITC: purified CEA-V2122 protein labeled with Fluorescein Labeling Kit—NH2 (conjugate)
chain: QVKLEQSGAEVVKPGASVKLSCKASGFNIKDSYMHWLRQGPGQRLEWIGWIDPENGDTEYAPKFQGKATFTTDTSANTAYLGLSSLRPEDTAVYYCNEGTPTGPYYFDYWGQGTLVTVSSGGGGSGGGGSGGGGSENVLTQSPSSMSVSVGDRVNIACSASSSVPYMHWLQQKPGKSPKLLIYLTSNLASGVPSRFSGSGSGTDYSLTISSVQPEDAATYYCQQRSSYPLTFGGGTKLEIKGGGGSGGGGAEAGITGTWSDQLGDTFIVTAGADGALTGTYENAVGGAESRYVLTGRYDSAPATDGSGTALGWTVAWKNNSKNAHSATTWSGQYVGGADAKINTQWLLTSGTTNANAWKSTLVGHDTFTKVKPSAASHHHHHH
In the case of B2, the “recognition of CEACAM5 on cells (FIG. 7)” value in test [2] (20 nM, 4° C. 30 minutes, CEACAM5-positive MKN-45 vs CEACAM5-negative DLD1 cells) is “specifically recognizes CEACAM5 on the surface of the cell membrane”. Moreover, in test [2] (time-series images of MKN45 cells), the “localisation of CEACAM5 after binding (FIG. 8)” value was “the CEACAM5 stays on the surface of the cell membrane”.

B3: CEA-V2122: scFv-type anti-CEACAM5 antibody bound with mutant streptavidin V2122 via an amino acid linker, SEQ ID NO: 14 (protein)
chain: QVKLEQSGAEVVKPGASVKLSCKASGFNIKDSYMHWLRQGPGQRLEWIGWIDPENGDTEYAPKFQGKATFTTDTSANTAYLGLSSLRPEDTAVYYCNEGTPTGPYYFDYWGQGTLVTVSSGGGGSGGGGSGGGGSENVLTQSPSSMSVSVGDRVNIACSASSSVPYMHWLQQKPGKSPKLLIYLTSNLASGVPSRFSGSGSGTDYSLTISSVQPEDAATYYCQQRSSYPLTFGGGTKLEIKGGGGSGGGGAEAGITGTWSDQLGDTFIVTAGADGALTGTYENAVGGAESRYVLTGRYDSAPATDGSGTALGWTVAWKNNSKNAHSATTWSGQYVGGADAKINTQWLLTSGTTNANAWKSTLVGHDTFTKVKPSAASHHHHHH
Take B3: the “KD=kd1/ka1” value in test [3] (bivalent analysis) was found to be 1.078E−12. Moreover, in test [3] (from the KD value in the sensorgram), the “binding to CEACAM5 (FIG. 5)” value was “strongly binds to CEACAM5”. Also, in test [3] (setting [4]), the ka1 was 3.208E+5 and the kd1 came to 3.461E−7.
